The test has as its target M2 isoenzyme of pyruvate kinase (M2PYK), human, N-terminal His6 tag (human) (UniProt P14618). The experiment in a line: SEC; analytical gel chromatography, Superdex 200 PC 3.2/30, 0.1 ml/min; protein diluted from 20 mg/ml to 0.1 mg/ml and incubated up to 12 h (overnight) at room temperature in PBS-CM pH 7.4, without or with 10 mM serine, phenylalanine, alanine or tryptophan; apparent constant, tetramer to monomers.

Kd data for one substance are collected here from article PMC5980995, “An allostatic mechanism for M2 pyruvate kinase as an amino-acid sensor” (Biochemical Journal, 2018).

Chain of M2 isoenzyme of pyruvate kinase (M2PYK), human, N-terminal His6 tag, P14618 1-531 (enzyme; other documents disagree on this pair) (P14618 whole entry): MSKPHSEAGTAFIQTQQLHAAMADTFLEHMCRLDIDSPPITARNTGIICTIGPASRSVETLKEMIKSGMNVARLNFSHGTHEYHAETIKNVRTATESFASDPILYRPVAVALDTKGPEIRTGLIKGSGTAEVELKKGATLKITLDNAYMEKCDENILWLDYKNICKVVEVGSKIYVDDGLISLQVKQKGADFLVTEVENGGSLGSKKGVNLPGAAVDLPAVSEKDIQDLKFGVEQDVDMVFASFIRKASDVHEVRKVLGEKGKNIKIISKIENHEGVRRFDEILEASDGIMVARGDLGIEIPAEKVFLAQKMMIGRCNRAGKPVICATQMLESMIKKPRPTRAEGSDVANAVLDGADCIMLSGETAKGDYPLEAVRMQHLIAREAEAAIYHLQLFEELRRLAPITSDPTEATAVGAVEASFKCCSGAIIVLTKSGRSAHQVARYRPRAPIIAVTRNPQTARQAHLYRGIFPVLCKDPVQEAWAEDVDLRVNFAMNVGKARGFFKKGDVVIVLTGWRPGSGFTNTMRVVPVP

Regarding “M2 isoenzyme of pyruvate kinase (M2PYK), human, N-terminal His6 tag, P14618 1-531 (enzyme; other documents disagree on this pair)”, the Kd stood at 0.9 µM.
